The results in this text go back to the DeepSol protein solubility set.

This series can be described thus: soluble on expression in E. coli; label from the status in PepcDB or PDB records.
Take “MSCDRKDEEKKETEEKKDDESKKKDEKKEEKSKRKEDEKKEKQNIAGAVYNQMRNTILMEEGSVISGRFEVKGIIGGGGFAQIYKAWDKVRKEDCAIKVEHESQDIRRMKLEITVLLALRGSMGIPEILAQGKWQHEDNKSHYIVMQLVGRNLSDVRRALPHKRITERTLYRAMIQVLKALSLVHGAGFLHRDLKPSNCCIGAIDCTRIYLIDYGLTRQYLDKGGIVRKPRAGVGLRGTVRYMSLDAHARQDLGPKNDLVAFLYTTIECGDGYLPWSHEKTHENIIKLKQAHIGDKLCTKQPVMTKAAEYIESLNYHSIPDYEKLLALMEECNPPDLKESEPYDWQYRHLPNGTPGGTKENVTERMAI”: the “soluble on expression in E. coli” value was “soluble”. The same measure for “MGSDKIHHHHHHMMAPNQFSSGDVIADRRADYARMLAESGDYPAAAELMEQALELAPRWTAGWFRFGEYHEKAGETAKAVAAYEKVAELDAEGLFAAELKLAVLGAAETPEQPPSRYVEGLFDDYADRFETSLVEKLDYSVPQKLAELIGKAATGDAFDTIVDIGCGTGLLGIEIRSLAKRLEGFDISQNMLAKADEKSLYDHLGQADLSLDAEASGLFTPVLTQHRADLVAAADVMMYLGSLETVMPLVSALLKPSGFFAFSVEDAGDEQGFVLRESLRYAHSKSYVIDLLERSGFSPMEIRKTTIRKDAGKPLSGILFLARAKA”: “not soluble”; for “MHHHHHHSSGRENLYFQGTIDDLFIFKRKLGSGAFGDVHLVEERSSGLERVIKTINKDRSQVPMEQIEAEIEVLKSLDHPNIIKIFEVFEDYHNMYIVMETCEGGELLERIVSAQARGKALSEGYVAELMKQMMNALAYFHSQHVVHKDLKPENILFQDTSPHSPIKIIDFGLAELFKSDEHSTNAAGTALYMAPEVFKRDVTFKCDIWSAGVVMYFLLTGCLPFTGTSLEEVQQKATYKEPNYAVECRPLTPQAVDLLKQMLTKDPERRPSAAQVLHHEWFKQA”: “soluble”; for “MPKKILFTGGGTVGHVTLNLILIPKFIKDGWEVHYIGDKNGIEHTEIEKSGLDVTFHAIATGKLRRYFSWQNLADVFKVALGLLQSLFIVAKLRPQALFSKGGFVSVPPVVAAKLLGKPVFIHESDRSMGLANKIAYKFATTMYTTFEQEDQLSKVKHLGAVTKVFKDANQMPESTQLEAVKEYFSRDLKTLLFIGGSAGAHVFN”: “not soluble”. The same measure for “MATVNKQAIAAAFGRAAAHYEQHADLQRQSADALLAMLPQRKYTHVLDAGCGPGWMSRHWRERHAQVTALDLSPPMLVQARQKDAADHYLAGDIESLPLATATFDLAWSNLAVQWCGNLSTALRELYRVVRPKGVVAFTTLVQGSLPELHQAWQAVDERPHANRFLPPDEIEQSLNGVHYQHHIQPITLWFDDALSAMRSLKGIGATHLHEGRDPRILTRSQLQRLQLAWPQQQGRYPLTYHLFLGVIARE”: “not soluble”; for “MSMEFDAVIIGGGVSGCATFYTLSEYSSLKRVAIVEKCSKLAQISSSAKANSQTIHDGSIETNYTPEKAKKVRLSAYKTRQYALNKGLQNEVIFETQKMAIGVGDEECEFMKKRYESFKEIFVGLEEFDKQKIKELEPNVILGANGIDRHENIIGHGYRKDWSTMNFAKLSENFVEEALKLKPNNQVFLNFKVKKIEKRNDTYAVISEDAEEVYAKFVLVNAGSYALPLAQSMGYGLDLGCLPVAGSFYFVPDLLRGKVYTVQNPKLPFAAVHGDPDAVIKGKTRIGPTALTMPKLERNKCWLKGISLELLKMDLNKDVFKIAFDLMSDKEIRNYVFKNMVFELPIIGKRKFLKDAQKIIPSLSLEDLEYAHGFGEVRPQVLDRTKRKLELGEKKICTHKGITFNMTPSPGATSCLQNALVDSQEIAAYLGESFELERFYKDLSPEELENLEHHHHHH”: “soluble”; for “SRGRGGTGGARRLSCGARRRAARGTSPGRRLSTAWSQPQPPPEEYAGADDVSQSPVAEEPSWVPSPRPPVPHESPEPPSGRSLVQRDIQAFLNQCGASPGEARHWLTQFQTCHHSADKPFAVIEVDEEVLKCQQGVSSLAFALAFLQRMDMKPLVVLGLPAPTAPSGCLSFWEAKAQLAKSCKVLVDALRHNAAAAVPFFGGGSVLRAAEPAPHASYGGIVSVETDLLQWCLESGSIPILCPIGETAARRSVLLDSLEVTASLAKALRPTKIIFLNNTGGLRDSSHKVLSNVNLPADLDLVCNAEWVSTKERQQMRLIVDVLSRLPHHSSAVITAASTLLTELFSNKGSGTLFKNAERMLRVRSLDKLDQGRLVDLVNASFGKKLRDDYLASLRPRLHSIYVSEGYNAAAILTMEPVLGGTPYLDKFVVSSSRQGQGSGQMLWECLRRDLQTLFWRSRVTNPINPWYFKHSDGSFSNKQWIFFWFGLADIRDSYELVNHAKGLPDSFHKPASDPGS”: “soluble”. The same measure for “MGSDKIHHHHHHMILFAGDPHGSYSHLYPFIQEHANVSLIILGDLQLTTSDELDKLAQFCDLWFIHGNHDSKTVSAYEALWGTKWKSRNLHGKVVDIQGIKIAGLGGVFRGQIWMPPNKPLFFDHIHYCQYAPPEKIWRGGIPLRHRTSIFPSDIEALEKQKADILICHEAPKPHPLGFSVINNLATSMQVKHIFHGHHHESFDYTKRPNKNPFKITNVGFRSLCNINGNFLLIGIDDRE”: “not soluble”; for “SCEGPSRISGPIPPDPTLCPDNYRRPTSAQGRLEGNALKLDLLTSDRALDTTAPRGPCIGPGAGEILERGQRGVGDVLLQLEGISLGPGASLKRKDPKDHEKENLRRIREIQKRFREQERSREQGQPRPLKALWRSPKYDKVESRVKAQLQEPGPASGTESAHFLRAHSRCGPGLPPPHVSSPQPTPPGPEAKEPGLGVDFIRHNARAAKRAPRRHSCSLQVLAQVLEQQRQAQEHYNATQKGHVPHYLLERRDLWRREAEARKQSQPDPAMPPGHTRMPENQRLETLTKLLQSQSQLLRELVLLPAGADSLRAQSHRAELDRKLVQVEEAIKIFSRPKVFVKMDD”: “soluble”. As for “DKQKALKKIAKCLELGNSANINEAANAIKMAHNLMLKYGLDKDDIEFIKMGKTQSTHLLPAAISSGILRVIRGINTRFGVEAVLLNHKGLKRVEFIGEADRAIFAAFAFDIIYREMNEQTGQFRNSFAGTGTSSLEVTRRVNSFVSGWIEGALEKLPIITPDEDSMNKINSYIDKEFENIDRETFKQQLREAMKNLTEDYETGLKKGRRVSVNRPIHGAQAPKLLK”, the “soluble on expression in E. coli” value is “not soluble”. With “METPYHQRWLAFPDAVSSYRPLESRLAGTSRATADNRTPCTGRLGTPRVFLMATDDVSKAYSSPTFDAEALLGTVISAEDPDRVLIEPWATGVDGVILDVGSGTGRWTGHLASLGHQIEGLEPATRLVELARQTHPSVTFHHGTITDLSDSPKRWAGLLAWYSLIHMGPGELPDALVALRMAVEDGGGLLMSFFSGPSLEPMYHPVATAYRWPLPELAQALETAGFQVTSSHWDPRFPHAYLTAEASLEHHHHHH” the entry was “soluble”. With “MGSDKIHHHHHHMLNIVVVAHPDDEILGFGATGAKLAAKGEVVQPIILCGSVDARTLRPTDEELHSDMLKANSLVGFSKPVLGDFPNISMNTVPHVELVQFIEEQIKKFRPNRIFTHHPNDLNNDHTQVSNACLAASRLFQRRNDLPALEALYFMEILSSTDWAFPAVGDGFKPTTFVEITCELEKKLAALHHYRNVMRPFPHPRSDEVVTGLAAYRGGQAGLKYAEAFQLVFKQGV” the entry was “not soluble”; with “MGCGQLDRVDSILVGMSYYNFPSPQGIGNVLVGKAKQTVRIRIPSTNLRKEVVRVGGLLSVSVMAVALSSCSAHPESSLSKSNQLGYAVNDRLVTTNAGSTEGASTNAQLLAGRLYPAPYVSGPKGQLIPNLSMASAQVLPGINQKIVYTISPDAVYSDGEAVTCDDYLLAFTAGTYDYVFDSYMPLMKQIDKVECKPRDREVTVTLKENFGPRWRQLFPAGVILPAHAIARKMGVTLEDLNTVLQSRDVDALQPIAEVWNRGFSLDQFDPDLQVSSGPYKVDRVGDRGEVYLTRNPHYGGQPAEIESVVVWPKGANLKELKDTGSLEIAEVTSSKEIDWLDRNDSTNSFDVQAQSGVLTEELLLANAGVFATRENRQAFASCIDQSSIASESSELSGVEVAPVTARTIRANDPMAGHVKDLTEAHLHSDVEQARRLAGQTIAIGYEGPDARMEAIVANIRRSCEPAGIIVVDAHQEGSGIRDLSRSFTTDHGYQFDKIGTIDVVLKALDPATEFESVATTSNNIAATRQAELSTWDVVPSIPLASQPRVFVVDRRVSNVVLNTDLAGIGWNMDRWFFSKNSK”, “not soluble”; with “MGSDKIHHHHHHAAIIFAFLYFTNNHKTDLESTISEQWNKITTFFSNDFSLPDTMSKLSTDNYKHEAGSRWSQNSASVYIASTDKTIVKAYQTALANWNATGSFTFNIISDKASADITAKDYSDVNSQAAGLAETETNAVTNRMSHVDVKLNRYYLLDASYGYSFDRIVHTAEHELGHAIGLDHDDKETSVMASSGSYNGIQTVDITAVKKLYAN”, “not soluble”. With “GKDFSYWVKMTTGYSDNKIKEAGFQATPGFDDIVRGERSDRGVWGYECIGMFRTYQDIEEYFAVNKITSYLGNTKDNIHPGMLIYRDVRGQRNADGTYGEADGVIDQNDYVKISN” the entry was “not soluble”.

As for “EAMKIKNQFATWDYEKKLQSMEHDSSIQKQLLATQRAQIEQRLAAQKAALEAERDAAGYHAAAGEADNEGVRQAYDALAQDSARRARDLAETAQRGKSQLDEIVGRLKDLADRSAANIINQGINQTVVVKLEKTGRLHTDQDIAKALEETLNAVKGLEARVEMVEAARAPSALEAAHSQL”, the “soluble on expression in E. coli” value is “not soluble”. The same measure for “MKNNKPICFYDIYCFKPQECFKRNDINLLEDKLKRYSKITFLRNKENPEIIFLLGGDGSFINFINQQWKKNVKIVGINYGQLGFYSSYDSIKTINLDEIIDENMYYNPLLLKVSINNQNFFYCLNELSLFSNELVSFDISINDYPYEKFRGSGLLFVTPSGSTGKNKTAFGPIIFNNHENFIMTEIFPVNHLKYSSLNAPVVFRKDYKISLTNIKFKKSFSVAIDGNIINFSDKINDIKVETIQASSKIHGLNNFKKYIDKLNKSFIKGEMAGDPLEHHHHHH”: “soluble”. With “MSSYFPVYLDLKDKEVLVIGGGRVATRKVKTLLEFTKNITIVSPKVTEELKNLIKEKKIKWIDRKFKPSDLKDKFLVVVAVDDIKLQKRVFNLCEKRGILCNSVDSPKYCNFIFPSIIKRGDLVISISTSGKVPALSRALREKIEECLPENIEEIMKELEIIRKSEEKGEERQKKLLRLARELLKNFLEHHHHHH” the entry was “soluble”; with “MGHHHHHHSHMKALLSIEMDMQVPFHDVDSMGITWHGNYLRYFEVARCKLLDELGYNYRQMRASNYAWPIIDVQIKYVKPSTFEQHITVRAELVEWENRLKINYQIRDTATGERITKGYTIQAAVDMTSQEMCFVTPEVFRSKIAPLLAKVDNE”, “soluble”; with “MESLTLQPIARVDGTINLPGSKSVSNRALLLAALAHGKTVLTNLLDSDDVRHMLNALTALGVSYTLSADRTRCEIIGNGGPLHAEGALELFLGNAGIAMRSLAAALCLGSNDIVLTGEPRMKERPIGHLVDALRLGGAKITYLEQENYPPLRLQGGFTGGNVDVDGSVSSQFLTALLMTAPLAPEDTVIRIKGDLVSKPYIDITLNLMKTFGVEIENQHYQQFVVKGGQSYQSPGTYLVEGDASSASYFLAAAAIKGGTVKVTGIGRNSMQGDIRFADVLEKMGATICWGDDYISCTRGELNAIDMDMNHIPDAAMTIATAALFAKGTTTLRNIYNWRVKETDRLFAMATELRKVGAEVEEGHDYIRITPPEKLNFAEIATYNDHRMAMCFSLVALSDTPVTILDPKCTAKTFPDYFEQLARISQAA”, “soluble”.
